Assay results published in article PMC4629521.
One block for each substance: values may come before it.

How the values were obtained:
[1] = target: P1Ara, TOMP1 partially dearabinosylated by alpha-L-arabinofuranosidase (tomato); assay: cross-linking + SEC
[2] = target: P1pH2, TOMP1 partially dearabinosylated by pH 2.0 HCl (tomato); assay: cross-linking + SEC
Q9FS16 = assay: cross-linking + SEC
[3] = target: RSH, monomeric extensin from Arabidopsis (native) (Arabidopsis) (UniProt Q9FS16); assay: cross-linking + SEC
[4] = target: RSHAra, RSH partially dearabinosylated by alpha-L-arabinofuranosidase (Arabidopsis) (UniProt Q9FS16); assay: cross-linking + SEC
[5] = target: RSHpH2, RSH partially dearabinosylated by pH 2.0 HCl (Arabidopsis) (UniProt Q9FS16); assay: cross-linking + SEC
[6] = target: TOMP1, tomato extensin precursor 1 (native) (tomato); assay: cross-linking + SEC

Substance: P1Ara, TOMP1 partially dearabinosylated by alpha-L-arabinofuranosidase
- monomer peak area loss (5~30 min XL) (cross-linking + SEC): 24.9%

- initial cross-linking rate [1]: 28.5 µg/mL⋅min
Substance: P1Ara, TOMP1 partially dearabinosylated by alpha-L-arabinofuranosidase (natural protein)

Substance: P1pH2, TOMP1 partially dearabinosylated by pH 2.0 HCl
- monomer peak area loss (5~30 min XL) (cross-linking + SEC): 54.2%

- initial cross-linking rate [2]: 95.3 µg/mL⋅min
Substance: P1pH2, TOMP1 partially dearabinosylated by pH 2.0 HCl (natural protein)

Substance: RSH, monomeric extensin from Arabidopsis (native)
- monomer peak area loss (5~30 min XL) (Q9FS16): 80.3%

- initial cross-linking rate [3]: 269 µg/mL⋅min
Substance: RSH, monomeric extensin from Arabidopsis (native) (from UniProt Q9FS16 28-431) (natural protein)

Substance: RSHAra, RSH partially dearabinosylated by alpha-L-arabinofuranosidase
- monomer peak area loss (5~30 min XL) (Q9FS16): 40.1%

- initial cross-linking rate [4]: 85 µg/mL⋅min
Substance: RSHAra, RSH partially dearabinosylated by alpha-L-arabinofuranosidase (from UniProt Q9FS16 28-431) (natural protein)

Substance: RSHpH2, RSH partially dearabinosylated by pH 2.0 HCl
- monomer peak area loss (5~30 min XL) (Q9FS16): 74.2%

- initial cross-linking rate [5]: 223 µg/mL⋅min
Substance: RSHpH2, RSH partially dearabinosylated by pH 2.0 HCl (from UniProt Q9FS16 28-431) (natural protein)

Substance: TOMP1, tomato extensin precursor 1 (native)
- monomer peak area loss (5~30 min XL) (cross-linking + SEC): 73.9%

- initial cross-linking rate [6]: 213 µg/mL⋅min
Substance: TOMP1, tomato extensin precursor 1 (native) (natural protein)
